US20060063727, “Tr4/tr2 response elements” (published 2006)

Columns and labels:
[1] = molecular target: T1, TR4 orphan receptor (NR2C2) (Homo sapiens) (UniProt P49116); assay: competition; settings: competitive EMSA
T1 sequence: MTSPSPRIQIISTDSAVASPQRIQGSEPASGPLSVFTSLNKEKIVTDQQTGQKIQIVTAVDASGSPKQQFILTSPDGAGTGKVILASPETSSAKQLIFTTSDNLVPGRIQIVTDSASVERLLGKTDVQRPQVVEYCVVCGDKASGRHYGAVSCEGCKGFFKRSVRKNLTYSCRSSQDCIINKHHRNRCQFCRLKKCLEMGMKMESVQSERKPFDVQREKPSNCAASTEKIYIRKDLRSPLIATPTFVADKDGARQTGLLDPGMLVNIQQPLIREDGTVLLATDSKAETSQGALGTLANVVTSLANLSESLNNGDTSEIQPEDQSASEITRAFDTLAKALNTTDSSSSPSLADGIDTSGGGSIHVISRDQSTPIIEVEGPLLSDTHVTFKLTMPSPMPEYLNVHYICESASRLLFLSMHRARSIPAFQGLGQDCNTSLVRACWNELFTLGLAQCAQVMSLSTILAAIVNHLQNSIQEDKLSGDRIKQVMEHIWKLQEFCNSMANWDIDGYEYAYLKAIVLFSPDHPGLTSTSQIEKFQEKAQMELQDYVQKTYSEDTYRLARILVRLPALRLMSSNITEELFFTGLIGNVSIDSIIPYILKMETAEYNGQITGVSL

[2] = molecular target: T2, TR2 orphan receptor (TR2-11, NR2C1) (Homo sapiens, UniProt P13056 SEQ:1-603); assay: EMSA; Scatchard; 25 mM Tris pH 8.0, 50 mM KCl, poly(dI.dC); settings: tags: none stated, pSG5-hTR2-11, TNT rabbit reticulocyte lysate; label: 32P
T2 chain: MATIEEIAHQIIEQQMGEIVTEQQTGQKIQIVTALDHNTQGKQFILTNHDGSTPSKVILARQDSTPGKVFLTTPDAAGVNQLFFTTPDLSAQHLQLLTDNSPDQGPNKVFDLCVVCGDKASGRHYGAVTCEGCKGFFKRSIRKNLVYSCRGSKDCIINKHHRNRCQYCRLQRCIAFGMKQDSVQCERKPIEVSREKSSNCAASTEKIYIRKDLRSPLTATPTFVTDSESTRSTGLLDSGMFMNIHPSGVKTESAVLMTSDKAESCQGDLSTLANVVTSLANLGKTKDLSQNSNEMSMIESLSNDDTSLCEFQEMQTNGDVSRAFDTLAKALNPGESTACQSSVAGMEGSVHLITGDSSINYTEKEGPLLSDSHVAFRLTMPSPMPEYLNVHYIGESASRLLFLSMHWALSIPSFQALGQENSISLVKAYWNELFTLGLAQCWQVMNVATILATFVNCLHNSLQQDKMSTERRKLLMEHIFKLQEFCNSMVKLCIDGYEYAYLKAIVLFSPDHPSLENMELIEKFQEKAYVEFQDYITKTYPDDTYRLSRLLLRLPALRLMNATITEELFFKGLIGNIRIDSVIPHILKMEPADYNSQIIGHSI
Procedure: Electrophoretic mobility shift assay analysis was performed as previously described (Jiang, C. K. et al. (1991) J Invest Dermatol 97, 969-973). The oligonucleotides were 5′ end labeled with γ-³²P ATP (specific activity=6000 Ci/mmole) (New England Nuclear) by T4 polynucleotide kinase. The specific activity reached 2-8×10⁸ cpm/μg. Labeled oligonucleotides (0.1 ng) were incubated with in vitro translated proteins, in the presence or absence of unlabeled oligonucleotide competitor or rabbit antiserum against TR2 (Cooney, A. J. et al. (1993) J Biol Chem 268, 4152-4160), for 15 min at room temperature. The binding buffer contained 25 mM Tris-HCl (pH 8.0), 10% glycerol, 50 mM KCl, 2 mM EDTA, 0.05% TritonX-100, 5 mM DTT, 1% β-mercaptoethanol, 5 ng/ml bovine serum albumin, 1.5 units/ml aprotinin, and 1 μg poly(dI.dC) (Pharmacia). […] The radioactive gels were analyzed by PhosphorImager (Molecular Dynamics). […]
To clarify the potential mechanism for the differential regulation of PPARα signal pathway by TR2 and TR4, the Kds (equilibrium dissociation constants) for TR2 and TR4 binding to PPRE were calculated using Scatchard analysis. […] The Kd values calculated here were consistent with the range of Kd values for nuclear receptors and their hormone response elements.

[3] = molecular target: T2, TR2 orphan receptor (TR2-11, NR2C1); assay: EMSA; competed by excess unlabeled oligo; supershift with anti-TR2 G204; settings: tags: none stated, pSG5-hTR2-11, TNT rabbit reticulocyte lysate; label: 32P
Procedure: EMSA analysis was performed as described previously (Lee, H. J., and Chang, C. (1995) J. Biol. Chem. 270, 5434-5440). […] For competition reactions, unlabeled HPV-16 DR4RE oligonucleotides were mixed with labeled probe prior to its addition to the reaction. Antibody shift analysis involved the addition of 1 μl of the monoclonal anti-TR2 orphan receptor antibody, G204, to the reaction for 15 min., at room temperature, prior to gel loading.
The site consists of two consensus A(G/T)(G/T)TCA half sites with a spacing of 4 nucleotides (ATGTCAccctAGTTCA). To determine whether TR2 was able to bind the HPV-16 DR4RE, gel shift analysis was performed. […] Also in FIG. 3A, a mock in vitro transcription/translation reaction was used in lane 3, and lane 4 contains ³²P-labeled HPV-16 DR4RE alone. To further confirm the binding specificity of TR2 for the HPV-16 DR4RE, a TR2-specific monoclonal antibody was added, resulting in an upward shift of the labeled complex (FIG. 3B).

With CRBPII (DR1) as the molecule, how does the IC50 ([1]; best of natural elements) read?
The IC50 was 0.023 ng.

For DR4 synthetic, which IC50 ([1]; range end assigned by order, weakest synthetic DR) is on record?
Its IC50 is 0.24 ng.

With DR6 synthetic as the molecule, how does the IC50 ([1]; range end assigned by order DR6>DR5>DR1>DR3>DR2>DR4) read?
Its IC50 is 0.08 ng.

ERE (palindrome) was tested. Which IC50 ([1]; weakest natural element, bound poorly, range end assigned by order) did it give?
Its IC50 is 85 ng.

B1: PPRE (rat acyl-CoA oxidase) (dsDNA)
DNA 1: GTCGACAGGGGACCAGGACAAAGGTCACGTTCGGGAGTCGAC
DNA 2: GTCGACTCCCGAACGTGACCTTTGTCCTGGTCCCCTGTCGAC
How did the Kd [2] turn out when B1 was run?
Its Kd is 1.23 nM.

B2: HPV-16 DR4RE (dsDNA)
DNA 1: ATGTCACCCTAGTTCA
DNA 2: TGAACTAGGGTGACAT
Does B2 bind [3]?
Result: binds
